Data reported in patent US8410045B2, “Camptothecin-peptide conjugates and pharmaceutical compositions containing the same” (Drais Pharmaceuticals, Inc., priority 2006, dated 2013).
“And” between values parts separate entries of the source, which are not always exact repeats. Equal values may be shown once. Read-outs that look alike come from different tables or passages of the source. Marks after values point to notes of the source that are not given here.

Experiments:
[1] = system: NCI-H460 human epithelial lung carcinoma cells; assay: In vitro cytotoxicity (WST-1 cell viability); type: cell-based; conditions: 24 h
[2] = Toxicity study in the beagle dog following intravenous infusion; conditions: for Reduction in WBC at D5 (%) / Toxic signs Day 1 / Toxic signs Following Days: i.v. infusion
Method: Adult female and male beagle dogs were individually housed with free access to tap water. A pellet diet was distributed daily.
Dogs (1 dog for each drug and dose) were infused intravenously through the cephalic or saphenous vein. These intravenous infusions were made using a single-use catheter (Intraflon®) and a plastic syringe connected to a syringe pump. During the injection, the animals were restrained in a hammock.
Conjugates were dissolved in water for injection (10% of final volume) and diluted with 0.9% NaCl to their final concentration. The volume administered to each animal was adjusted according to body weight.
Clinical signs, hematological and intestinal toxicities were monitored during a period of 15 days after infusion. Each animal was checked at least twice a day for mortality or signs of morbidity.
The body weight of each animal was recorded on the day −1, 4, 10 and 13.
Peripheral blood samples were taken into EDTA tubes for the determination of following parameters on days −1, 5, 11 and 14: erythrocytes, hemoglobin, mean cell volume, packed cell volume, mean cell hemoglobin concentration, mean cell hemoglobin, thrombocytes, leucocytes, differential white cell count with cell morphology.

HT-29 tumors = assay: Combination of DPV1047-BCH-SN38 with 5-FU or bevacizumab in the HT-29 tumor model; conditions: i.v.
Method: Mice were implanted with HT-29 tumors and treated by intraperitoneal administration (bevacizumab) or bolus intravenous injection (5-FU or DPV1047-BCH-SN38) at 10 μL/g. […] The T/C ratio was calculated following treatment with either bevacizumab, 5-FU or DPV1047-BCH-SN38. These T/C ratios were used to evaluate the expected T/C for combined treatment with bevacizumab and DPV1047-BCH-SN38, or 5-FU and DPV1047-BCH-SN38 (T/C of DPV1047-BCH-SN38×T/C of bevacizumab or 5-FU). […] The combination index of the two molecules was calculated by dividing the expected T/C by the observed T/C.

[3] = system: LS 174T human colorectal carcinoma tumor; assay: Antitumor efficacy in human LS 174T xenograft colon tumor model implanted in nude rats; type: in vivo
Method: The LS 174T study was performed using female nude rats (8 weeks old) purchased from Harlan breeding center (Gannat, France). LS 174T tumors were established by a subcutaneously implantation of cell (ATCC Number: CCl-188) suspensions in the right flank of the animals. The first injection of drugs was performed when the tumors reached a size of about 1000 mm^3. The tumor volume was calculated using the following formula: [length×width^2]/2.

[4] = system: MDA-MB-231 mammary carcinoma; assay: Antitumor efficacy in MDA-MB-231 mammary carcinoma model in nude mice; type: in vivo; conditions: Table 7, i.v. Q2D3 × 3 W
[5] = Stability of conjugates in citrated plasma at 37° C. (half life time, HPLC fluorescence); type: in vitro ADME; conditions: dog
Outline: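 Conjugates at 2.55 μM incubated at 37° C in citrated plasma of several species, including human and dog. After TFA/acid extraction, released free camptothecin derivative (e.g. SN38) measured by reversed-phase C18 HPLC with fluorescence detection; half-life taken as time to 50 mol% release.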

[6] = Table 4, 20 (cumulative 100) μmol/kg, i.v. bolus, Q3/4Dx5
[7] = Table 7, i.v. Q4D × 5, 10 μmol/kg
[8] = Table 7, i.v. Q4D × 5, 20 μmol/kg

In the case of `CCc1c2c(nc3ccc(OC(=O)[C@H]4CC[C@H](CNC(=O)C5CCC(CN6C(=O)CC(SC[C@H](N)C(=O)N[C@H](C(=O)N[C@@H](CCCCN)C(=O)N[C@@H](CCCNC(=N)N)C(=O)NCC(=O)N[C@@H](CC(C)C)C(=O)N[C@@H](CCCCN)C(=O)N[C@@H](CC(C)C)C(=O)N[C@@H](CCCNC(=N)N)C(=O)N[C@@H](Cc7c[nH]cn7)C(=O)N[C@H](C(=O)N[C@@H](CCCNC(=N)N)C(=O)N7CCC[C@H]7C(=O)N[C@@H](CCCNC(=N)N)C(=O)N[C@H](C(=O)N[C@H](C(=O)N[C@@H](CCCNC(=N)N)C(=O)N[C@@H](CCSC)C(=O)N[C@@H](CC(=O)O)C(=O)N[C@H](C(=O)O)C(C)C)[C@@H](C)O)C(C)C)C(C)C)C(C)C)C6=O)CC5)CC4)cc13)-c1cc3c(c(=O)n1C2)COC(=O)[C@]3(O)CC` (single isomer, unassigned) [DPV1047-BCH-SN38], the IC50 [1] is reported as 40 nM, the “reduction in WBCs” value ([2]; dog, 20 mg/kg) is reported as 93% and the “clinical signs of toxicity” value ([2]; dog, 30 mg/kg) is reported as “clear toxicological signs including diarrhea and a severe hematoxicity”. The “Reduction in WBC at D5 (%)” value ([2]; dog, 5 mg/kg) was −60%, the “Toxic signs Day 1” value ([2]; dog, 5 mg/kg) was “None” and the “Toxic signs Following Days” value ([2]; dog, 5 mg/kg) was “None”. For the same molecule, the “Reduction in WBC at D5 (%)” value ([2]; dog, 10 mg/kg) was −50% and −57%, the “Toxic signs Day 1” value ([2]; dog, 10 mg/kg) was “None” and the “Toxic signs Following Days” value ([2]; dog, 10 mg/kg) was “None”. For the same molecule, the “Reduction in WBC at D5 (%)” value ([2]; dog, 20 mg/kg) was −93%, the “Toxic signs Day 1” value ([2]; dog, 20 mg/kg) was “None” and the “Toxic signs Following Days” value ([2]; dog, 20 mg/kg) was “Decrease in food”. The “Reduction in WBC at D5 (%)” value ([2]; dog, 30 mg/kg) was −96%, the “Toxic signs Day 1” value ([2]; dog, 30 mg/kg) was “None” and the “Toxic signs Following Days” value ([2]; dog, 30 mg/kg) was “Liquid faeces D4”. The MTD ([2]; dog, in vivo, iv) was about 20 mg/kg, the “clinical signs” value ([2]; dogs, 5 and 10 mg/kg) was “no clinical signs” and the “Single treatment DPV1047-BCH-SN38 T/C %” value (HT-29 tumors; 12.5 μmol/kg, 5-FU combination experiment) was 68%. For the same molecule, the “Single treatment DPV1047-BCH-SN38 T/C %” value (HT-29 tumors; 12.5 μmol/kg, bevacizumab combination experiment) was 77%, the “Single treatment DPV1047-BCH-SN38 T/C %” value (HT-29 tumors; 25 μmol/kg, 5-FU combination experiment) was 50% and the “Single treatment DPV1047-BCH-SN38 T/C %” value (HT-29 tumors; 25 μmol/kg, bevacizumab combination experiment) was 69%. The “Minimal T/C (%)” value [3, 6] was 43%, the “TGI %” value [3, 6] was 57*** % and the “Optimal T/C %” value [3, 7] was 47.2%. For the same molecule, the TGI % [3, 7] was 52.8%, the “Optimal T/C %” value [3, 8] was 42.8% and the TGI % [3, 8] was 57.2%. For the same molecule, the “Optimal T/C %” value ([4]; 12.5 μmol/kg) was 34.1%, the TGI % ([4]; 12.5 μmol/kg) was 65.9% and the “Optimal T/C %” value ([4]; 25 μmol/kg) was 30.1%. For the same molecule, the TGI % ([4]; 25 μmol/kg) was 69.9%, the half-life ([5]; DPV1047-linker-SN38, 2.55 μM, citrated plasma, read-out: Half life time, Dog plasma) was 4.5 h and the half-life ([5]; Table 10, SN38 conjugates, read-out: Dog Plasma Half life time) was 4.33 h. The half-life ([5]; Table 12, CPP-linker #5-SN38 conjugates incl. D conformation, read-out: Dog Plasma Half life time) was 4 h.
